Source: paper PMC4245848, “The Aspergillus nidulans Zn(II)2Cys6 transcription factor AN5673/RhaR mediates L-rhamnose utilization and the production of α-L-rhamnosidases”

Experiments:
[1] = target: T1, His6::RhaR (1-159*) (Aspergillus nidulans (cDNA from strain AR198)) (UniProt A0A0A1I536); assay: EMSA; conditions: 25 mM HEPES pH 7.9, 50 mM KCl, 5 mM MgCl2, 1 mM DTT, 0.1 mM EDTA, 1 ug salmon sperm DNA, 20 ul, 4 C 30 min; 5-8% native PAGE in 0.5x TBE at 4 C, ethidium …
T1 sequence: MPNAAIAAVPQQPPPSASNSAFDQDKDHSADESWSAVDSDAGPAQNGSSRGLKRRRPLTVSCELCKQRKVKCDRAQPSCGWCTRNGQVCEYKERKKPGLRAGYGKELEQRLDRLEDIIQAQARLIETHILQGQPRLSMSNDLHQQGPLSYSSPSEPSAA

His6::RhaR (1-159*) = target: T2, His6::RhaR (1-159*) (Aspergillus nidulans (cDNA from strain …, UniProt A0A0A1I536)); assay: EMSA; 25 mM HEPES pH 7.9, 50 mM KCl, 5 mM MgCl2, 1 mM DTT, 0.1 mM EDTA, 1 ug salmon sperm DNA, 20 ul, 4 C 30 min; 5-8% native PAGE in 0.5x TBE at 4 C, ethidium bromide; conditions: protein: recombinant; tags: N-terminal His6 (pQE-80L); chain copies: 2; blunt
T2 sequence: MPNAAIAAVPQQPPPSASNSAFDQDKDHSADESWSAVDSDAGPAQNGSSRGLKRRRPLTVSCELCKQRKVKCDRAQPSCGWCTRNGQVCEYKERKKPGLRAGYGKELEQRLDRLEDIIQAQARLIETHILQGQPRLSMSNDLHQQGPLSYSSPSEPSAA

**Q.** Which binding [1] does the source give for “AGATCTTCTCTGGGGAAGATCGACCGACCTGGTCCTGCAGAGCTCCAAGGCTTCCTCTCAGAAAGCCGATTAGTAGAAGCGGAGTCAAAGCAGGGTCAAGACGGACAATTAGAAGCCATGAATGGCGGATCCCAGCCCATGATCGCATACTGTGATCCAAAATCGACATAACTAAGTCACTTCCCTTCGCTTGTATCTGCCCAGCCATCCAACAACTCTA (double strand) [rhaAp 219 bp mut1]” here?
**A.** Its binding is “binds more weakly”.

B1: 35-mer wild type (dsDNA)
DNA 1: AGATCTTCTCGGGGGAAGATCGACCGACCTGGTCC
DNA 2: GGACCAGGTCGGTCGATCTTCCCCCGAGAAGATCT
**Q.** Does B1 bind (His6::RhaR (1-159*))?
**A.** Result: binds

B2: 35-mer mut1 mut2 (dsDNA)
DNA 1: AGATCTTCTCTGGGGAAGATCGACAGACCTGGTCC
DNA 2: GGACCAGGTCTGTCGATCTTCCCCAGAGAAGATCT
**Q.** Does B2 bind (His6::RhaR (1-159*))?
**A.** Result: no binding
